Measurements: patent US20150065444

Target: Purified 6x His-tagged PCNA, P12004
Sequence (P12004 whole entry): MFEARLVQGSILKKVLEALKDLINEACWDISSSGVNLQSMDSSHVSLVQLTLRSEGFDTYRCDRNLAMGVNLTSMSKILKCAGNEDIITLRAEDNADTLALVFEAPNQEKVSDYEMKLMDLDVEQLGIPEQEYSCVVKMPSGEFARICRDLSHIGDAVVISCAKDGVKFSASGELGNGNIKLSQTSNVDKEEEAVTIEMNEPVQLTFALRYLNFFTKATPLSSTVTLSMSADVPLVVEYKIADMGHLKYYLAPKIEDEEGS

B1: Purified recombinant 6x His-tagged Arm1 (protein)
chain: MAVVPASLSGQDVGSFAYLTIKDRIPQILTKVIDTLHRHKSEFFEKHGEEGVEAEKKAISLLSKLRNELQTDKPFIPLVEKFVDTDIWNQYLEYQQSLLNESDGKSRWFYSPWLLVECYMYRRIHEAIIQSPPIDYFDVFKESKEQNFYGSQESIIALCTHLQQLIRTIEDLDENQLKDEFFKLLQISLWGNKCDLSLSGGESSSQNTNVLNSLEDLKPFILLNDMEHLWSLLSNCKKTREKASATRVYIVLDNSGFELVTDLILADFLLSSELATEVHFYGKTIPWFVSDTTIHDFNWLIEQVKHSNHKWMSKCGADWEEYIKMGKWVYHNHIFWTLPHEYCAMPQVAPDLYAELQKAHLILFKGDLNYRKLTGDRKWEFSVPFHQALNGFHPAPLCTIRTLKAEIQVGLQPGQGEQLLASEPSWWTTGKYGIFQYDGPL
**Q.** B1 was tested. Which “PCNA-dependent carboxyl methyltransferase activity (vapour diffusion assay)” value did it give?
**A.** Arm possesses a PCNA-dependent carboxyl methyltransferase activity
